According to publication PMC4967042:

Key:
Assay in all cases: MST
[1] = target: RECQ1-C478A (human, UniProt P46063 1-649, C478A)
[2] = target: RECQ1-C475A (human, UniProt P46063 1-649, C475A)
[3] = target: RECQ1-C453A (human, UniProt P46063 1-649, C453A)
Chain of RECQ1-C453A (P46063 whole entry C453A): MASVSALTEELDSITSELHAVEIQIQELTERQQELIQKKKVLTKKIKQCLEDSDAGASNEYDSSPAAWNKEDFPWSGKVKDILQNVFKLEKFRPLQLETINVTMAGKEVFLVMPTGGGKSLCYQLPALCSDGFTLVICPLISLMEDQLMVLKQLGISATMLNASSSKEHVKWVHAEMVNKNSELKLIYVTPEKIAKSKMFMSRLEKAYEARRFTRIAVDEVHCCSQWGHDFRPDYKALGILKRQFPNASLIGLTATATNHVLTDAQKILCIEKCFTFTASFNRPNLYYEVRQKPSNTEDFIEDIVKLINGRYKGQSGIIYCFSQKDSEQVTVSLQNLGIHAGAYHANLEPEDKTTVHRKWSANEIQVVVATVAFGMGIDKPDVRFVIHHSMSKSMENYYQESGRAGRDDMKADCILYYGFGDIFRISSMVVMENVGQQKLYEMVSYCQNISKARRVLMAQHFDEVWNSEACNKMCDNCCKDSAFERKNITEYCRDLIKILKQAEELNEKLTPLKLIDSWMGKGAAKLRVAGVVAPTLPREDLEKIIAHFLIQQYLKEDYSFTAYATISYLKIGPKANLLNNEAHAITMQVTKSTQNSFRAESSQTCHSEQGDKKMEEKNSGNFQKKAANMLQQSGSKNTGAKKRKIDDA

Chain of RECQ1-C475A (P46063 whole entry C475A): as the sequence (P46063 whole entry C453A) above, with A453C, C475A counted along it
Chain of RECQ1-C478A (P46063 whole entry C478A): as the sequence (P46063 whole entry C453A) above, with A453C, C478A counted along it

B1: forked duplex T44/FLAP26 (dsDNA)
DNA 1: GCACTGGCCGTCGTTTTACGGTCGTGACTGGGAAAACCCTGGCG
DNA 2: TTTTTTTTTTTTTTTTTTTTTTCCAAGTAAAACGACGGCCAGTGC
- Kd [1]: 602 nM
- Kd [2]: 473 nM
- Kd [3]: 276 nM
